Assay results: patent US20250326867A1, “De novo designed chlorophyll special pair proteins” (University of Washington, priority 2024, published 2025)
Substitutions are numbered along the chain they refer to.

B1: SP3 (designed binder)
chain: SGSSEELARESAEAAWRLAQAGTRLMLAWIRGDLKEIAEALIELARAVQELARVAKEYGNDELAKTAALLAAHVAMLAILVLIRAIKEGDDEVRELAKTAIKLASTAAKIVLDALPTAEEVRQITLLAKLAEEAADKKNEDSALAVGIAAAAVLLALLALEAAQKAGIEEAEKGARLLLKLAMDAARKKNPEEALAVFNAALDVSIALKLLQSAKRAGSEETRKLAEEMLRQALERARK
notes: Designed homodimer subunit, after TEV cleavage
B2: tj79C2-H69B (designed binder)
chain: SGSGSREDELHARYLILSAELAAERADIAAERTGDPRVRELARELKRLAQEAAEEVKRDPSSSDVNKALLLITHAILIAVAALEAAERTGDPEVRELARELVRLAVEAAEEVQRNPSSSDVNRALFLIMMAIMMAVKALEAAERTGDPEVRELARELVRLAVEAAEEVQRNPSSKEVDMALLLILIAILEAVLSLLRAERSGDPEKREKARERVREAVERAEEVQRDPSGW
notes: as for B1
B3: tj79C2-H121A (designed binder)
chain: SGSGSREDELIARYQILLAELAAERADIAAERTGDPRVRELARELKRLAQEAAEEVKRDPSSSDVNMALLLILLMIELAVRALEAAERTGDPEVRELARELVRLAVEAAEEVQRNPSSSDVWQALHLIMLAIWAAVAALEAAERTGDPEVRELARELVRLAVEAAEEVQRNPSSKEVYMALLLILIAILEAVLSLLRAERSGDPEKREKARERVREAVERAEEVQRDPSGW
notes: as for B1
B4: tj79C2-H121B (designed binder)
chain: SGSGSREDELLARLLLLLAELAAERADIAAERTGDPRVRELARELKRLAQEAAEEVKRDPSSSDVLMALLLIIMAIEAAVEALEAAERTGDPEVRELARELVRLAVEAAEEVQRNPSSSDVWWALHLILFAIQLAVRALEAAERTGDPEVRELARELVRLAVEAAEEVQRNPSSKEVDMALLLILIAILEAVLSLLRAERSGDPEKREKARERVREAVERAEEVQRDPSGW
notes: as for B1
B5: tj79C2-H121C (designed binder)
chain: B4 chain with L16I, A68L, I73V, M74L, E77Q, W122F, W123M, R137Q, V168L, D178Q
notes: as for B1
B6: tj79C2-H125A (designed binder)
chain: SGSGSREDELWARYTLLLAELAAERADIAAERTGDPRVRELARELKRLAQEAAEEVKRDPSSSDVYLALILIVMAIYMAVLALEAAERTGDPEVRELARELVRLAVEAAEEVQRNPSSSDVNKALLLIVHAIMAAVAALEAAERTGDPEVRELARELVRLAVEAAEEVQRNPSSKEVDMALLLIQIAILEAVLSLLRAERSGDPEKREKARERVREAVERAEEVQRDPSGW
notes: as for B1
B7: tj79C2-H132A (designed binder)
chain: SGSGSREDELRARLLILLAELAAETLDIIAERTGDPRVRELARELIRLLQEAAEEVKRDPSSSDVNEALKLIVEAIFMAIFILLFAEQTGDPEVRELARELVRLAVEAAEEVQRNPSSSDVNEALKLIIQAIILAVHALLAAEKTGDPEVRELARELVRLAVEAAEEVQRNPSSKEVDMALLLILIAILEAVLSLLRAQRSGDPEKREKARERVREAVERAEEVQRDPSGW
notes: as for B1
B8: D13_H11A (designed binder)
chain: SGSGSEEKEWQAMTLHLIFAIKILKEMLEEDPNDEEIKKILELLWQISKTQQDDPHNEEQKEWLMLLLLIIMALRLVQEMLKEDPNDEEIEKILELLKQILRTLREDPHNEEQKEWLILLLIIILLLDSVQEMLKEDPNDEEIEKILELLKQILRTLREDPHNEEQKQWLIQLINALILLLFIQEKLKEDPNDEEAEEELERLKEQLRRLRE
notes: as for B1
B9: D13_H11B (designed binder)
chain: B8 chain with L15A, F19Y, M65I, L69I, M72L, I118S, L121F, L125A
notes: as for B1
B10: D13_H11C (designed binder)
chain: B8 chain with Q11A, A12I, L15A, F19Y, I23V, L69G, M72L, I118A, L121V
notes: as for B1
B11: D13_H60A (designed binder)
chain: SGSGSEEKEWMLLTAMLIMAIKTLKEMLEEDPNDEEIKKILELLWQISKTQQDDPHNEEQKEWLHLLLIIIMALRLVQEMLKEDPNDEEIEKILELLKQILRTLREDPHNEEQKEWLILLFIIIALLDSVQEMLKEDPNDEEIEKILELLKQILRTLREDPHNEEQKQWLIQLINALILLLFIQEKLKEDPNDEEAEEELERLKEQLRRLRE
notes: as for B1
B12: SP3x (designed binder)
chain: SGSSEELARESAEAAWRLAQASTRATLAMIRGDLKELAEALIELARAVQELARVAKEYGNDELAKTAALLAAHVAMLAIWVLIRAIKEGDDEVRELAKTAIKLASTAAKIVLDALPTAEEVRQITLLAKLAEEAADKKNEDSALAVGIAAIAVIIALWALEAAQKAGIEEAEKGARLLLKLAMDAARKKNPEEALAVLNAALDVSIALQLLQSAKRAGSEETRKLAEEMLRQALERARKKN
notes: as for B1
B13: D13_H60B (designed binder)
chain: B11 chain with M11Q, A15W, M16L, A20I, L68A, I69A, M72L, E115A, I118L, F121V
notes: as for B1
B14: JIa (designed binder)
chain: B1 chain with L25A, M26A, W29A, I37L, M76L, L155A, F198L, K209R
notes: as for B1
B15: JIc (designed binder)
chain: B1 chain with G22A, M26V, W29L, I37V, L69W, L80Y, A151I, L155I, F198L, K209R
notes: as for B1
B16: JId (designed binder)
chain: B1 chain with G22A, M26V, W29V, L69F, M76L, L80I, F198L, K209R
notes: as for B1
B17: JIe (designed binder)
chain: B1 chain with G22A, L25I, W29V, L69F, M76L, L80I, A151M, L155I, K209R
notes: as for B1
B18: D_3_114_2 (designed binder)
chain: SGSGSSDEEFKWLATWAKMAITAAERAAGTDPELQEMVALIKKELEQAERTFRNGDKSEAWRQLVFVAIAAAAVLAVALAANAAGTDPELQEMVDRILKQLKEAIRTFQNGDQEEAETQLFFVLLAAAAVAVVALALIWAGTDPELQEMVKQILEELKQAIETFARGDKEKALTQLLFVLWAAHAVLWIAIAANTAGTDPRLQQQVKEILEKLKEAIETFQKGDEEQAFRQLAEVLAEAVLVALRAMKTN
notes: as for B1
B19: D_3_114_3 (designed binder)
chain: SGSGSSDELFKWLATEAKMAITAAERLAGTDPELQEMVALIKKELEQAERTFRNGDKSEAMRQLLFVLMAANAVAAVAAAANMAGTDPELQEMVDRILKQLKEAIRTFQNGDQEEAMTQLAFVLLAAAAVFVVAWALILAGTDPELQEMVKQILEELKQAIETFARGDKEKALTQLLFVLWAAHAVAWIALAALLAGTDPRLLQQVKEILEKLKEAIETFQKGDEEQAFRQLAEVLAEAILVAIRAAKTN
notes: as for B1
B20: D_3_114_4 (designed binder)
chain: SGSGSSDEEFKFLATMAKMAITAAERAAGTDPELQEMVALIKKELEQAERTFRNGDKSEAQRQLWFVWVAALAVAAVALAANAAGTDPELQEMVDRILKQLKEAIRTFQNGDQEEAETQLRFVLMAAAAVAVVALARLWAGTDPELQEMVKQILEELKQAIETFARGDKEKALTQLLFVLWAAHAVLWIAIAANLAGTDPRLQQQVKEILEKLKEAIETFQKGDEEQAFRQLAEVLAEAVLVALRARKTN
notes: as for B1
B21: D_3_114_5 (designed binder)
chain: SGSGSSDFEFKMLATWAKMAITAAERAAGTDPELQEMVALIKKELEQAERTFRNGDKSEAMRQLEFVLTAANAVLAVALAANMAGTDPELQEMVDRILKQLKEAIRTFQNGDQEEAEDQLLFVLAAATAVAVVAWAKILAGTDPELQEMVKQILEELKQAIETWARGDKEKAATQLLFVMWAAHAVAAIALAANVAGTDPRLQQQVKEILEKLKEAIETFQKGDEEQAFRQLAEVLAEAMLVAIRALLTN
notes: as for B1
B22: JA (designed binder)
chain: SGSGSWEEEAADKAIEIAEKVFRLKKSGTSEDEIAEEVAREISEVIRTLKESGSSEEVIALALLMIILGVVMALIANGVSIREQLDISATILYEVAREQGNEEALEAIEEITRLAEEIKEEGGSILAAHILTMAGLLVAALPSEEAAEVAKEIAKAVKAAVEAEKDGKSDEAMLALIRLILAIMAALFNRSKYSLEMVRRIAKEAEQLAEDAREGK
notes: as for B1
B23: JB (designed binder)
chain: SGSTEELKKVLEDVRELAERAKESTDPEEALIIAILVIIRALAAVALDPSEEASTAVKIAIKIAEEVAKRVSDSELSASIALLIANLALVAAKAAGDEELSKLALRLAKLAAELAKDALRIAEERGNAWQAAIAVGVVVMVATILLALAKQLGSEEALKEALEVAEEAARLAKRQLELAERVGDPIVALAAVGHVFMVAMLLAQIARESGSEEAKERAKRVAEEAEELAERVYELMRREGK
notes: as for B1
B24: JC (designed binder)
chain: SGSTEKLKKVLERVRELAERAKESTSPEEALIIALLVSSLAIAAVMLDPSEEASTAVKIAIKIAEEVAKRVSDSQLSASIALSIASLALVAAEAAGDEELSKLALRLAKLAAELAKDALRIAEERGNAIDAAIAVGIVVMVAAILLQLAKLLGSEEALKEALEVAEEAARLAKRVLELAERVGDPQVALAAVGHVQMVAILLAQIARESGSEEAKERAERVARESMELAERVLELMRREGKW
notes: as for B1

Molecular target: the molecule itself
Assay: size-exclusion chromatography, self-association (homodimer)
Method: FIG. 7. Size exclusion chromatography (SEC) traces of purified SP apo-proteins. Proteins were injected as 0.5 mL aliquots onto a Superdex™ 200 Increase 10/300 GL column (Cytiva Life Sciences). The narrow, isolated peaks indicate that the samples contain monodisperse protein. Running buffer was 150 mM NaCl, 10 mM Tris at pH 8. Proteins were purified by Ni-NTA and one round of SEC prior to collecting the data shown.
Proteins were purified by Ni-NTA and size-exclusion chromatography (SEC) (FIG. 7). […] A slightly lower predicted radius of gyration (Rg) value compared to experimental SAXS data is likely due to a dense hydration shell around the highly charged SP proteins (Svergun et al. 1998; Kim et al. 2016). The far ultraviolet (UV) circular dichroism (CD) spectra of three SP proteins that expressed in high yield (≥140 mg/L) show the proteins are highly α-helical with and without the synthetic Chl a derivative, Zn pheophorbide a methyl ester (ZnPPaM). Thermal denaturation curves monitored by the CD signal at 222 nm indicate that all three proteins are highly thermostable in the apo- and holo-states (FIG. 2).

Row | Protein | binding result
1 | B1 | binds
2 | B2 | binds
3 | B3 | binds
4 | B4 | binds
5 | B5 | binds
6 | B6 | binds
7 | B7 | binds
8 | B8 | binds
9 | B9 | binds
10 | B10 | binds
11 | B11 | binds
12 | B12 | binds
13 | B13 | binds
14 | B14 | binds
15 | B15 | binds
16 | B16 | binds
17 | B17 | binds
18 | B18 | binds
19 | B19 | binds
20 | B20 | binds
21 | B21 | binds
22 | B22 | binds
23 | B23 | binds
24 | B24 | binds
